# Laboratory results taken from patent US20180016327A1 (Chugai, published 2018).
# T1: cynomolgus monkey C5 (cynomolgus monkey, limits assumed)
# T1 construct: also called recombinant cynomolgus monkey C5
# T1 chain 1: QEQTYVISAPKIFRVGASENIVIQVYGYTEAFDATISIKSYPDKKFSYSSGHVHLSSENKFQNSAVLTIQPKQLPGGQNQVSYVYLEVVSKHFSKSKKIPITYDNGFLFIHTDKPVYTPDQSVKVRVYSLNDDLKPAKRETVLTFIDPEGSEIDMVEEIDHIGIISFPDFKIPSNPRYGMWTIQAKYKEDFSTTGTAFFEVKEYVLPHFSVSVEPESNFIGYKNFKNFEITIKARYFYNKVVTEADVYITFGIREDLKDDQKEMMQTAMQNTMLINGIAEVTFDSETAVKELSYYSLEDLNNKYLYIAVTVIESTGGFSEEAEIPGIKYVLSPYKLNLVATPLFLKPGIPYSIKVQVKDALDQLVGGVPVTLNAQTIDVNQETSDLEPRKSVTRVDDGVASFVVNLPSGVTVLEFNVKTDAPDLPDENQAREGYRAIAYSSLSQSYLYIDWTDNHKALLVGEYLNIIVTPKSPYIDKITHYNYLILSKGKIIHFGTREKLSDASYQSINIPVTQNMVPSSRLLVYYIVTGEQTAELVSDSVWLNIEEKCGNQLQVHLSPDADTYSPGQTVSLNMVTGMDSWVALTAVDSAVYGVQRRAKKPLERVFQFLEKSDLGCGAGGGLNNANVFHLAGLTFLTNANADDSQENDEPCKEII
# T1 chain 2: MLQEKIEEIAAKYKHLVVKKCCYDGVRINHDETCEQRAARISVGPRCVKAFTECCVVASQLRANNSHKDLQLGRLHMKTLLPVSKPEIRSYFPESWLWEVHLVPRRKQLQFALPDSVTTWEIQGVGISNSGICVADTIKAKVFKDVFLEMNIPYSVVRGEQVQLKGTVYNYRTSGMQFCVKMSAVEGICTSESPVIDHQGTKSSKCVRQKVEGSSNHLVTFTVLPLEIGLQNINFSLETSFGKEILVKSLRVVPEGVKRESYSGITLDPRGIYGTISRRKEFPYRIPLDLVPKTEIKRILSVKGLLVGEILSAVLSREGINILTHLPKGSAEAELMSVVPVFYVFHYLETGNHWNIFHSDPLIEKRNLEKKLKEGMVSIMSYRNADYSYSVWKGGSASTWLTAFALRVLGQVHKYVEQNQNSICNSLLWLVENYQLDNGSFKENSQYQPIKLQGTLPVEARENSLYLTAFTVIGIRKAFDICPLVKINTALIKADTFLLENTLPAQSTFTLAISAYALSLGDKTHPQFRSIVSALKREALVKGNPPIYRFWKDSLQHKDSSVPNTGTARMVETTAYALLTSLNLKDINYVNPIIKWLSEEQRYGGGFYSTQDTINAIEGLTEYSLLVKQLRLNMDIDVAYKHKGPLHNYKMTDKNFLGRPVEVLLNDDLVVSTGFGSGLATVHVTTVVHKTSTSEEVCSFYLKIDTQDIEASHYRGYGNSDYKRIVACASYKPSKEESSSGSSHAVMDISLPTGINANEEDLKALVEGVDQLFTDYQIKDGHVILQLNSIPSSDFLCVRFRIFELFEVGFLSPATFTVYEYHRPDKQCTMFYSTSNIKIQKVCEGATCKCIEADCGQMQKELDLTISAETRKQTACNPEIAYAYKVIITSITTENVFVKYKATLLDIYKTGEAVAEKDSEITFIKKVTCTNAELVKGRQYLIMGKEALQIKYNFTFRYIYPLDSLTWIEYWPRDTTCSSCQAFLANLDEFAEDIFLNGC
# Legend:
# human C5 [1] = molecular target: T2, human C5 (human, UniProt P01031 19-673; P01031 678-1676, Beta and alpha chains are disulfide-linked and the protein is glycosylated.); assay: Biacore, 37 degrees C; antibody captured, human C5 injected (concentration not given); association pH 7.4, dissociation pH 7.4 (circles) or pH 5.8 (triangles)
# T2 construct: Either in-house recombinant C5 or plasma derived C5 (CALBIOCHEM) was used; also called recombinant human C5; plasma derived human C5
# human C5 [2] = molecular target: T2, human C5; assay: Biacore, captured antibody, pH 7.4, 37 C;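 further: biacore binding response of anti-C5 antibody light chain variants captured on chip with human C5 injected, ACES running buffer containing 1.2 mM CaCl₂, parent light chain antibody set to 100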
# Protocol: The light chain variants were tested for the binding affinity to C5 at pH 7.4 and at 37 degrees C. using Biacore T200 instrument (GE Healthcare) or Biacore 4000 instrument (GE Healthcare). […] Anti-C5 antibodies were captured on an immobilized molecule, and then human C5 was injected. The running buffer used was pH 7.4 ACES Buffer containing 1.2 mM Ca (20 mM ACES, 150 mM NaCl, 1.2 mM CaCl₂, 0.05% Tween 20). A value, % binding, was determined by normalizing binding response with that of antibody comprising parent light chain as 100.
# human C5 [3] = molecular target: T2, human C5; assay: Biacore T200, 37 C, kd from the dissociation phase only, dissociation at pH 7.4
# Protocol: (§1) Anti-C5 antibodies were captured on an immobilized molecule, and then human C5 was injected. The running buffers used were ACES pH 7.4 and pH 5.8 (20 mM ACES, 150 mM NaCl, 1.2 mM CaCl₂, 0.05% Tween 20). Kinetics parameters at both pH conditions were determined by fitting the sensorgrams with 1:1 binding -RI (without bulk effect adjustment) model using Biacore T200 Evaluation software, version 2.0 (GE Healthcare).
# (§2) These variants were examined for the binding against human C5.
# cynomolgus monkey C5 [4] = molecular target: T1, cynomolgus monkey C5; assay: as above
# Protocol: as §1
# human C5 [5] = molecular target: T2, human C5; assay: Biacore T200, captured antibody, recombinant human C5 injected, pH 7.4, 37 C, 1:1 fit
# Protocol: as §1, §2
# cynomolgus monkey C5 [6] = molecular target: T1, cynomolgus monkey C5; assay: Biacore T200, captured antibody, cynomolgus monkey C5 injected, pH 7.4, 37 C, 1:1 fit
# Protocol: as §1
# human C5 [7] = molecular target: T2, human C5; assay: Biacore T200, 37 C, kd from the dissociation phase only, association at pH 7.4 and dissociation at pH 5.8
# Protocol: as §1, §2
# cynomolgus monkey C5 [8] = molecular target: T1, cynomolgus monkey C5; assay: as above
# Protocol: as §1
binder,measurement,setting,value
"antibody comprising heavy chain of clone 18 and light chain of 20L065 (antibody, V domains shown, also called clone 18 with common light chain) VH: QVQLVQSGAEVKKPGSSVKVSCKASGGTFSSYAISWVRQAPGQGLEWMGGIIPIFGTANYAQKFQGRVTITADESTSTAYMELSSLRSEDTAVYYCARQLYGYYELDIWGQGTLVTVSS VL: DIQMTQSPSSLSASVGDRVTITCRASQSIHDDLAWYQQKPGKAPKLLIYEASNLQSGVPSRFSGSGSGTDFTLTISSLQPEDFATYYCQQYSSYPHTFGQGTKVEIK",binding result,human C5 [1],binds
"CFP0017 17L 93D (antibody, V domains shown) VH: QVQLVQSGAEVKKPGSSVKVSCKASGGTFSSYAISWVRQAPGQGLEWMGGIIPIFGTANYAQKFQGRVTITADESTSTAYMELSSLRSEDTAVYYCARGGWWGGALDYWGQGTLVTVSS VL: DIQMTQSPSSLSASVGDRVTITCRASQSIEDDLAWYQQKPGKAPKLLIYHASSLQSGVPSRFSGSGSGTDFTLTISSLQPEDFATYYCQQSDDYPLTFGQGTKVEIK",% binding (parent = 100),human C5 [2],22.9%
"CFP0017 17L 96Y (antibody, V domains shown) VH: QVQLVQSGAEVKKPGSSVKVSCKASGGTFSSYAISWVRQAPGQGLEWMGGIIPIFGTANYAQKFQGRVTITADESTSTAYMELSSLRSEDTAVYYCARGGWWGGALDYWGQGTLVTVSS VL: DIQMTQSPSSLSASVGDRVTITCRASQSIEDDLAWYQQKPGKAPKLLIYHASSLQSGVPSRFSGSGSGTDFTLTISSLQPEDFATYYCQQSDSYPYTFGQGTKVEIK",% binding (parent = 100),human C5 [2],-11.1%
"CFP0017 17L 93R (antibody, V domains shown) VH: QVQLVQSGAEVKKPGSSVKVSCKASGGTFSSYAISWVRQAPGQGLEWMGGIIPIFGTANYAQKFQGRVTITADESTSTAYMELSSLRSEDTAVYYCARGGWWGGALDYWGQGTLVTVSS VL: DIQMTQSPSSLSASVGDRVTITCRASQSIEDDLAWYQQKPGKAPKLLIYHASSLQSGVPSRFSGSGSGTDFTLTISSLQPEDFATYYCQQSDRYPLTFGQGTKVEIK",% binding (parent = 100),human C5 [2],84.9%
"CFP0017 17L 93N (antibody, V domains shown) VH: QVQLVQSGAEVKKPGSSVKVSCKASGGTFSSYAISWVRQAPGQGLEWMGGIIPIFGTANYAQKFQGRVTITADESTSTAYMELSSLRSEDTAVYYCARGGWWGGALDYWGQGTLVTVSS VL: DIQMTQSPSSLSASVGDRVTITCRASQSIEDDLAWYQQKPGKAPKLLIYHASSLQSGVPSRFSGSGSGTDFTLTISSLQPEDFATYYCQQSDNYPLTFGQGTKVEIK",% binding (parent = 100),human C5 [2],63%
"CFP0017 17L 93G (antibody, V domains shown) VH: QVQLVQSGAEVKKPGSSVKVSCKASGGTFSSYAISWVRQAPGQGLEWMGGIIPIFGTANYAQKFQGRVTITADESTSTAYMELSSLRSEDTAVYYCARGGWWGGALDYWGQGTLVTVSS VL: DIQMTQSPSSLSASVGDRVTITCRASQSIEDDLAWYQQKPGKAPKLLIYHASSLQSGVPSRFSGSGSGTDFTLTISSLQPEDFATYYCQQSDGYPLTFGQGTKVEIK",% binding (parent = 100),human C5 [2],51%
"CFP0017 17L 31A (antibody, V domains shown) VH: QVQLVQSGAEVKKPGSSVKVSCKASGGTFSSYAISWVRQAPGQGLEWMGGIIPIFGTANYAQKFQGRVTITADESTSTAYMELSSLRSEDTAVYYCARGGWWGGALDYWGQGTLVTVSS VL: DIQMTQSPSSLSASVGDRVTITCRASQSIEADLAWYQQKPGKAPKLLIYHASSLQSGVPSRFSGSGSGTDFTLTISSLQPEDFATYYCQQSDSYPLTFGQGTKVEIK",% binding (parent = 100),human C5 [2],0.6%
"CFP0017 17L 94S (antibody, V domains shown) VH: QVQLVQSGAEVKKPGSSVKVSCKASGGTFSSYAISWVRQAPGQGLEWMGGIIPIFGTANYAQKFQGRVTITADESTSTAYMELSSLRSEDTAVYYCARGGWWGGALDYWGQGTLVTVSS VL: DIQMTQSPSSLSASVGDRVTITCRASQSIEDDLAWYQQKPGKAPKLLIYHASSLQSGVPSRFSGSGSGTDFTLTISSLQPEDFATYYCQQSDSSPLTFGQGTKVEIK",% binding (parent = 100),human C5 [2],-8.4%
"CFP0017 17L 31H (antibody, V domains shown) VH: QVQLVQSGAEVKKPGSSVKVSCKASGGTFSSYAISWVRQAPGQGLEWMGGIIPIFGTANYAQKFQGRVTITADESTSTAYMELSSLRSEDTAVYYCARGGWWGGALDYWGQGTLVTVSS VL: DIQMTQSPSSLSASVGDRVTITCRASQSIEHDLAWYQQKPGKAPKLLIYHASSLQSGVPSRFSGSGSGTDFTLTISSLQPEDFATYYCQQSDSYPLTFGQGTKVEIK",% binding (parent = 100),human C5 [2],3.4%
"CFP0017 17L 94T (antibody, V domains shown) VH: QVQLVQSGAEVKKPGSSVKVSCKASGGTFSSYAISWVRQAPGQGLEWMGGIIPIFGTANYAQKFQGRVTITADESTSTAYMELSSLRSEDTAVYYCARGGWWGGALDYWGQGTLVTVSS VL: DIQMTQSPSSLSASVGDRVTITCRASQSIEDDLAWYQQKPGKAPKLLIYHASSLQSGVPSRFSGSGSGTDFTLTISSLQPEDFATYYCQQSDSTPLTFGQGTKVEIK",% binding (parent = 100),human C5 [2],4.3%
"CFP0019 (antibody, V domains shown, IgG format) VH: QVQLQESGPGLVKPSETLSLTCAVSGYSISSGYYWGWIRQPPGKGLEWIGSIYHSGSTYYNPSLKSRVTISVDTSKNQFSLKLSSVTAADTAVYYCARYYVWLGGPTYMDYWGQGTLVTVSS VL: DIQMTQSPSSLSASVGDRVTITCRASQSIEDDLAWYQQKPGKAPKLLIYHASTLQSGVPSRFSGSGSGTDFTLTISSLQPEDFATYYCQQSDGYPLTFGQGTKVEIK",% binding (parent = 100),human C5 [2],100%
"optimized 20//18 (bispecific antibody, V domains shown, Bispecific IgG with the common light chain 20L233) VH 1: QVQLQESGPGLVKPSETLSLTCAVSGYSISSGYYWGWIRQPPGKGLEWIGSIYHSGSTYYNKKLKSRVTISVDTSKNQFSLKLSSVTAADTAVYYCARHDPTWYHHGYFDYWGQGTLVTVSS VH 2: QVQLVQSGAEVKKPGSSVKVSCKASGGTFSSYSISWVRQAPGQGLEWMGGIIPIFGTANYAQKFQGRVTITADESTSTAYMELSSLRSEDTAVYYCARQLYGYYELDIWGQGTLVTVSS VL: DIQMTQSPSSLSASVGDRVTITCRASQSIHNDLAWYQQKPGKAPKLLIYEASELQSGVPSRFSGSGSGTDFTLTISSLQPEDFATYYCQHYSSYPYTFGQGTKVEIK",koff,human C5 [3],0.000104 s⁻¹
same,koff,cynomolgus monkey C5 [4],0.000224 s⁻¹
same,Kd,human C5 [5],0.268 nM
same,koff,human C5 [5],9.72e-05 s⁻¹
same,kon,human C5 [5],362000 M⁻¹ s⁻¹
same,Kd,cynomolgus monkey C5 [6],0.664 nM
same,koff,cynomolgus monkey C5 [6],0.000236 s⁻¹
same,kon,cynomolgus monkey C5 [6],355000 M⁻¹ s⁻¹
same,koff,human C5 [7],0.0594 s⁻¹
same,koff,cynomolgus monkey C5 [8],0.107 s⁻¹
